Results from US20020160010A1.

Biological target: CD44 variant carrying the epitope coded by exon v6 on human Langerhans cells and dendritic cells (human) (UniProt P16070)

Question: Which binding of cultivated LCs and cytokine-activated DCs to paracortical T-cell zones of lymph node frozen sections does the source give for VFF18 (antibody) here?
Answer: Its binding of cultivated LCs and cytokine-activated DCs to paracortical T-cell zones of lymph node frozen sections is < 66 % inhibition.
